For four molecules, stoichiometry N, binding result and Kd results are on record in article PMC10164549.

Data set [1] addresses Salmonella enterica serovar Montevideo DpdB, His6 tag removed (Salmonella enterica subsp. enterica serotype Montevideo). As to the kind of experiment: SEC.
The target of data set [2] is Salmonella enterica serovar Montevideo DpdB, His6-tagged (Salmonella enterica subsp. enterica serotype Montevideo). As to the kind of experiment: SEC-SAXS + SEC-MALS. For orientation: Size exclusion chromatography separates by hydrodynamic size, large species first.
Another data set concerns the target T1, DpdA D95A (Salmonella enterica subsp. enterica …, UniProt P0DW33 1-416, D95A).
T1 sequence: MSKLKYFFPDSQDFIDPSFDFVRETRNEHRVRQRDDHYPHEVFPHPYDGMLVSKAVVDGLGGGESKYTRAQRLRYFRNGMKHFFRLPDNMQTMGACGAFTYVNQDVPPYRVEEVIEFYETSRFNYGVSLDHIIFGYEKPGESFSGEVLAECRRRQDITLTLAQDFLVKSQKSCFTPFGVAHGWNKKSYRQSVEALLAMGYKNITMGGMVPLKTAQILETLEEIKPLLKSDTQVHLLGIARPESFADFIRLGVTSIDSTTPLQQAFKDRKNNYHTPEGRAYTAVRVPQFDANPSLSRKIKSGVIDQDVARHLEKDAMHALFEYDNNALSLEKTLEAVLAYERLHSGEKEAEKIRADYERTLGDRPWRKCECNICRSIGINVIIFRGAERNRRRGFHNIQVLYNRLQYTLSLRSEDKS
As to the kind of experiment: SEC-SAXS/MALS.

For another data set, the target named is T2, DpdA wild type (Salmonella enterica subsp. enterica …, UniProt P0DW33 1-416).
T2 sequence: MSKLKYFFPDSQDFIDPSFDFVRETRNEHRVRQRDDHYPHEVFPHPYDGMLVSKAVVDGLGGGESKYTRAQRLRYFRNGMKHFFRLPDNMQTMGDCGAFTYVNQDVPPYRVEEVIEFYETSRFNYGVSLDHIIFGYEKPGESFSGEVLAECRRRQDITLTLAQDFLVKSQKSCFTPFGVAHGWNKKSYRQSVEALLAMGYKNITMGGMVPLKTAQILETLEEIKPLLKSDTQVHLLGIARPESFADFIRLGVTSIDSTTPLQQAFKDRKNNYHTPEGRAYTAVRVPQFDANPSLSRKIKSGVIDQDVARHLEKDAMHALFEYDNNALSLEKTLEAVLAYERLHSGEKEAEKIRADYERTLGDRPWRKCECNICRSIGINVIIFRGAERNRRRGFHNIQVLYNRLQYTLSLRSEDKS
As to the kind of experiment: EMSA.

For a further data set, the target named is T3, DpdA F265A (Salmonella enterica subsp. enterica …, UniProt P0DW33 1-416, F265A).
T3 sequence: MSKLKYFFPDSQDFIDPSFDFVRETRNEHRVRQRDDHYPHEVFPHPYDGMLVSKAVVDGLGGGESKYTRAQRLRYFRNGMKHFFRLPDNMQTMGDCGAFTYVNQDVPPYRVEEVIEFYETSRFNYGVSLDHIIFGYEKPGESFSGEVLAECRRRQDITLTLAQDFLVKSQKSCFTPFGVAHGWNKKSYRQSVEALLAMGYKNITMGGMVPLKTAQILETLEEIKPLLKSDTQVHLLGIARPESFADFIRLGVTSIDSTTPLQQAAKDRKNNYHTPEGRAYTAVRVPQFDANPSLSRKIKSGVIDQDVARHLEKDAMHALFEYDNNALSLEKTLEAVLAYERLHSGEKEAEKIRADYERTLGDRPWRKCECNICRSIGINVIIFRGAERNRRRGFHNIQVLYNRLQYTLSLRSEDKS
Nature of the data set: EMSA.

Consider “Salmonella enterica serovar Montevideo DpdB, His6 tag removed (enzyme)”, for which the stoichiometry N in data set [1] worked out at 2.
Consider “Salmonella enterica serovar Montevideo DpdB, His6-tagged (enzyme)”, for which the stoichiometry N in data set [2] came to 2.

B1: 28 bp DNA duplex (28bpDuplexF/R) (dsDNA)
DNA 1: GGGGTTTTCGCCAGCTGGCGTTTTGGGG
DNA 2: CCCCAAAACGCCAGCTGGCGAAAACCCC
As for B1, the binding result with DpdA D95A is reported as “binds”.

B2: 28 bp DNA duplex spiked with 1% 6-FAM-labeled strand (dsDNA)
DNA 1: GGGGTTTTCGCCAGCTGGCGTTTTGGGG
DNA 2: CCCCAAAACGCCAGCTGGCGAAAACCCC
For the molecule B2, the Kd stood at 3400 ± 200 nM with DpdA wild type and 2300 ± 100 nM with DpdA F265A.

One may read the stoichiometry N as the number of molecules, sites or subunits per partner or assembly. By Kd is commonly meant a measure of binding affinity in units of concentration.
